# Reference: patent publication US8247194 (Amgen, dated 2012)
# Molecular target: T1, recombinant human GM-CSF (rhGM-CSF), produced in E. coli (human, UniProt P04141 18-144)
# T1 construct: The ELISA of 2.5.2 and the TF-1 proliferation assays say only rhGM-CSF without naming the preparation; they are assigned to this molecule; also called human GM-CSF antigen; recombinant human granulocyte macrophage colony stimulating factor
# Experiment: SPR off-rate ranking, purified periplasmic preparation over immobilized rhGM-CSF; clone listed among the sequenced hits in the 2nd table
# Protocol: FIG. 9: Binding analysis (kinetic off rate) of SCA hits derived from the method of the invention, as determined by SPR. Binding kinetics of the SCA hits were measured injecting 10 µL of purified periplasmic preparation ("PPP") protein solution with a flow rate of 5 µL/min at 25° C. onto the sensor chip. The data were monitored in all four flow cells. Background association with the unmodified CM5 chip surface (FC1) was substracted from the binding to the immobilised rhGM-CSF (FC2) allowing analysis of the specific binding signal (FC2-FC1 response difference). The dissociation rate was monitored for 100 sec (FIG. 4). The amplitude of the binding peak (RUmax) directly correlates to the protein concentration in the injected sample. The kinetic association rate constant (ka) is concentration dependent and can—due to varying concentrations of the PPP protein solution—not be used for the qualitative ranking of the purified PPP SCA material. The kinetic dissociation rate constant (kd) is protein concentration independent and characteristic for the binding strength of the respective SCA hit. The SCA hits with the best apparent off rate were identified.
# T1 sequence (P04141 18-144 limits assumed): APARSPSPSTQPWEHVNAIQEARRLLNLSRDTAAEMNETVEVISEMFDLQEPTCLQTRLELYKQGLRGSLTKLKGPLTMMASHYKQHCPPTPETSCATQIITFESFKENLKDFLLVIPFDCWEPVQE
row,Binder,binding result
1,"half-human SCA B32oN-10 (scFv, Expressed from pComb3H5BFlag/His) scFv: ELQLVEQSGAALVKPGDSVKMSCKASGYPFTDYIVHWVKQSHGKSLDWIGYINPYSGDTKFNEKFKSKATLTVDKSSSTAYMEFSRLTSEDSAIYYCARSGLIAVYFDYWGQGTTVTVSSGGGGSGGGGSGGGGSELQMTQSPSSLSASVGDRVTITCRTSQTISSLLNWYQQKPGKAPKLLIYAASNLQSGVPSRFSGSGSGTDFTLTISGLQPEDFSTYFCQQSYSFPRTFGQGTKVDIKTGDYKDDDDKHHHHHH",binds
2,"half-human SCA B33oN-22 (scFv, Expressed from pComb3H5BFlag/His) scFv: ELQLVEQSGAALVKPGDSVKMSCKASGYPFTDYIVHWVKQSHGKSLDWIGYINPYSGDTKFNEKFKSKATLTVDKSSSTAYMEFSRLTSEDSAIYYCARSGLIAVYFDYWGQGTTVTVSSGGGGSGGGGSGGGGSELVLTQSPDFQSVTPKEKVTITCRASQSIGSSLHWYQQKPDQSPKLLIKFASQSFSGVPSRFSGSGSGTDFTLTINSLEAEDAATYYCQQSYSTPPTFGQGTKVEIKTGDYKDDDDKHHHHHH",binds
3,"half-human SCA C32oN-21 (scFv, Expressed from pComb3H5BFlag/His) scFv: ELQLVEQSGAALVKPGDSVKMSCKASGYPFTDYIVHWVKQSHGKSLDWIGYINPYSGDTKFNEKFKSKATLTVDKSSSTAYMEFSRLTSEDSAIYYCARSGLIAVYFDYWGQGTTVTVSSGGGGSGGGGSGGGGSELVLTQSPGFQSVTPKEKVTITCRASQSIGSSLHWYQQKPDQSPKLLIKFASQSISGVPSRFSGTGSGTDFTLTINSLEAEDAATYYCQQSSTLPPTFGQGTKLEIKTGDYKDDDDKHHHHHH",binds
4,"half-human SCA C32oN-46 (scFv, Expressed from pComb3H5BFlag/His) scFv: ELQLVEQSGAALVKPGDSVKMSCKASGYPFTDYIVHWVKQSHGKSLDWIGYINPYSGDTKFNEKFKSKATLTVDKSSSTAYMEFSRLTSEDSAIYYCARSGLIAVYFDYWGQGTTVTVSSGGGGSGGGGSGGGGSELVLTQSPDFQSVTPKEKVTITCRASQSIGSSLHWYQQKPDQSPKLLIKFASQSLSGVPSRFSGSGSGTDFTLTISSLQPEDFATYYCQQSYSTPPTFGQGTKVEIKTGDYKDDDDKHHHHHH",binds
5,"half-human SCA B32oN-44 (scFv, Expressed from pComb3H5BFlag/His) scFv: ELQLVEQSGAALVKPGDSVKMSCKASGYPFTDYIVHWVKQSHGKSLDWIGYINPYSGDTKFNEKFKSKATLTVDKSSSTAYMEFSRLTSEDSAIYYCARSGLIAVYFDYWGQGTTVTVSSGGGGSGGGGSGGGGSELVLTQSPDFQSVTPKEKVTITCRASQSIGSSLHWYQQKPDQPPKLLIKFASQSISRVPSRFSGTGSGTDFTLTINSLEAEDAATYYCQQSFSFPYTFGQGTKLEIKTGDYKDDDDKHHHHHH",binds
6,"half-human SCA C32oN-34 (scFv, Expressed from pComb3H5BFlag/His) scFv: ELQLVEQSGAALVKPGDSVKMSCKASGYPFTDYIVHWVKQSHGKSLDWIGYINPYSGDTKFNEKFKSKATLTVDKSSSTAYMEFSRLTSEDSAIYYCARSGLIAVYFDYWGQGTTVTVSSGGGGSGGGGSGGGGSELVLTQSPDFQSVTPKERVTITCRASQTIGNNLHWYQQKPGQSPKLLIKFASQSFSGVPSRFSGSGSGTDFTLTINSLEAEDAATYYCQQSYSTPWTFGQGTKVEIKTGDYKDDDDKHHHHHH",binds
7,"half-human SCA C32oN-10 (scFv, Expressed from pComb3H5BFlag/His) scFv: ELQLVEQSGAALVKPGDSVKMSCKASGYPFTDYIVHWVKQSHGKSLDWIGYINPYSGDTKFNEKFKSKATLTVDKSSSTAYMEFSRLTSEDSAIYYCARSGLIAVYFDYWGQGTTVTVSSGGGGSGGGGSGGGGSELVLTQSPDFQSVTPKEKVTITCRASQSIGSSLHWYQQKPDQSPKLLIKFASQSLSGVPSRFSGSGSGTDFTLTINSLEAEDFATYYCQQSYSTPSTFGPGTKVEIKTGDYKDDDDKHHHHHH",binds

# More lines, now with the values ahead:
row,binding result,Binder
1,binds,"half-human SCA B33oN-21 (scFv, Expressed from pComb3H5BFlag/His) scFv: ELQLVEQSGAALVKPGDSVKMSCKASGYPFTDYIVHWVKQSHGKSLDWIGYINPYSGDTKFNEKFKSKATLTVDKSSSTAYMEFSRLTSEDSAIYYCARSGLIAVYFDYWGQGTTVTVSSGGGGSGGGGSGGGGSELVLTQSPDFQSVTPKEKVTITCRASQSIGSSLHWYQQKPDQSPKLLIKFASQSLSGVPSRFSGSGSGTDFTLTINSLEAEDAATYYCQQSYSTPWTFGQGTKLEIKTGDYKDDDDKHHHHHH"
2,binds,"half-human SCA C33oN-49 (scFv, Expressed from pComb3H5BFlag/His) scFv: ELQLVEQSGAALVKPGDSVKMSCKASGYPFTDYIVHWVKQSHGKSLDWIGYINPYSGDTKFNEKFKSKATLTVDKSSSTAYMEFSRLTSEDSAIYYCARSGLIAVYFDYWGQGTTVTVSSGGGGSGGGGSGGGGSELVLTQSPDFQSVTPKEKVTITCRASQSIGSSLHWYQQKPDQSPKLLIKFASQSFSGVPSRFSGSGSGTDFTLTINSLEAEDAATYYCQQSYSTPWTFGQGTKLEIKTGDYKDDDDKHHHHHH"
3,binds,"half-human SCA B33oN-69 (scFv, Expressed from pComb3H5BFlag/His) scFv: ELQLVEQSGAALVKPGDSVKMSCKASGYPFTDYIVHWVKQSHGKSLDWIGYINPYSGDTKFNEKFKSKATLTVDKSSSTAYMEFSRLTSEDSAIYYCARSGLIAVYFDYWGQGTTVTVSSGGGGSGGGGSGGGGSELVLTQSPDFQSVTPKEKVTITCRASQSIGTGLHWYQQKPDQSPKLLIKFASQSFSGVPSRFSGSGSGTDFTLTINGLEAEDAATYYCQQSSTLPPTFGQGTKLEIKTGDYKDDDDKHHHHHH"
4,binds,"half-human SCA B33oN-8 (scFv, Expressed from pComb3H5BFlag/His) scFv: ELQLVEQSGAALVKPGDSVKMSCKASGYPFTDYIVHWVKQSHGKSLDWIGYINPYSGDTKFNEKFKSKATLTVDKSSSTAYMEFSRLTSEDSAIYYCARSGLIAVYFDYWGQGTTVTVSSGGGGSGGGGSGGGGSELVLTQSPGFQSVTPKEKVTITCRASQSIGSSLNWYQQKPDQPPKLLIKFASQSISGVSSRFSGTGSGTDFTLTISSLQPEDVATYYCQQSYSTPPTFGQGTKLEIKTGDYKDDDDKHHHHHH"
5,binds,"half-human SCA B33oN-115 (scFv, Expressed from pComb3H5BFlag/His) scFv: ELQLVEQSGAALVKPGDSVKMSCKASGYPFTDYIVHWVKQSHGKSLDWIGYINPYSGDTKFNEKFKSKATLTVDKSSSTAYMEFSRLTSEDSAIYYCARSGLIAVYFDYWGQGTTVTVSSGGGGSGGGGSGGGGSELVLTQSPDFQSVTPKEKVTITCRASQSIGSSLHWYQQKPDQSPKLLIKFASQSLSGVPSRFSGSGSGTDFTLTISSLQPEDFATYYCQQSYSTPSTFGPGTKVEIKTGDYKDDDDKHHHHHH"
6,binds,"half-human SCA B33oN-66 (scFv, Expressed from pComb3H5BFlag/His) scFv: ELQLVEQSGAALVKPGDSVKMSCKASGYPFTDYIVHWVKQSHGKSLDWIGYINPYSGDTKFNEKFKSKATLTVDKSSSTAYMEFSRLTSEDSAIYYCARSGLIAVYFDYWGQGTTVTVSSGGGGSGGGGSGGGGSELVLTQSPDFQSVTPKEKVTITCRASQSIGSNLHWYQQKPDQSPKLLIKFASQSFSGVPSRFSGSGSGTDFSLTINSLEAEDAATYYCQQSYSTPPTFGQGTRLEIKTGDYKDDDDKHHHHHH"
7,binds,"half-human SCA B32oN-49 (scFv, Expressed from pComb3H5BFlag/His) scFv: ELQLVEQSGAALVKPGDSVKMSCKASGYPFTDYIVHWVKQSHGKSLDWIGYINPYSGDTKFNEKFKSKATLTVDKSSSTAYMEFSRLTSEDSAIYYCARSGLIAVYFDYWGQGTTVTVSSGGGGSGGGGSGGGGSELVLTQSPDFQSVTPKEKVTITCRASQSIGSSLHWYQQKPDQSPKLLIKFASQSLSGVPSRFSGSGSGTDFTLTISSLQPEDFATYYCQQSYTTPPTFGGGTKVEIKTGDYKDDDDKHHHHHH"
